Here are results for two substances from paper PMC6120557.

For the experiment, the target named is chemokine receptor 4 (CXCR4), GFP‐tagged, on MDAMB231 X4 cells (human) (UniProt P61073). The experiment in a line: flow cytometry on cells. On the technique in general: A flow cytometer gives signals particle by particle.

pKd: −log10 of the molar value.

Sequence of UniProt P61073 (P61073 whole entry): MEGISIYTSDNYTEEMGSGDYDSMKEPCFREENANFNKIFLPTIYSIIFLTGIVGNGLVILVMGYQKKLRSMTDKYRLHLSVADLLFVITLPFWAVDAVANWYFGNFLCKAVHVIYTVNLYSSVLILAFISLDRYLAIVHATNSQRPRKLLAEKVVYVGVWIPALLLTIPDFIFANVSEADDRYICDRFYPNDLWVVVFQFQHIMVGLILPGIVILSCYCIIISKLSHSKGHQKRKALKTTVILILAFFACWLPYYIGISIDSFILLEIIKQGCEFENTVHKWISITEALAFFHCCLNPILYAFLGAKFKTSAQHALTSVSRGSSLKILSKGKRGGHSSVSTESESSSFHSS

With Cy5‐S‐S‐Cy3‐AcTZ14011 (peptide), the negative logarithm of the Kd (pKd) (usually the Kd on a negative log10 scale, so that one unit is a factor of ten) is under 6.30.

Take N3‐Cy5‐AcTZ14011 (peptide): the pKd is 6.65.
